Reference: publication PMC5727130
Values joined by “and” are separate entries in the source; they are usually repeats but may differ in a detail not shown here. Equal values may be shown once. Each block holds one substance with its values, some of them ahead of it.

Legend:
[1] = molecular target: His6-NT*-thrombin cleavage site-Bri2 BRICHOS fusion protein (human) (UniProt Q9Y287); assay: SEC; Ni-NTA-purified NT*-Bri2 BRICHOS fusion protein resolved on Superdex columns (Supplementary Fig. 1)
[2] = molecular target: human Bri2 BRICHOS (residues 113–231) tagged C-terminally with AU1, secreted from HEK293 cells (human) (UniProt Q9Y287); assay: Western blot after non-reducing SDS-PAGE; lysates of HEK293 cells transfected with Bri2 BRICHOS-AU1, anti-AU1 blot (Supplementary Fig. 9a)
[3] = molecular target: human Bri2 BRICHOS (residues 113–231) tagged C-terminally with AU1, secreted from HEK293 cells (human) (UniProt Q9Y287); assay: immunoprecipitation and Western blot after non-reducing SDS-PAGE; culture medium of HEK293 cells transfected with Bri2 BRICHOS; reducing against non-reducing conditions
[4] = molecular target: recombinant human Bri2 BRICHOS domain (residues 113–231 of full-length human Bri2) (human) (UniProt Q9Y287); assay: SEC; rh Bri2 BRICHOS cleaved from isolated fusion-protein dimers; Superdex 200 PG
[5] = molecular target: recombinant human Bri2 BRICHOS domain (residues 113–231 of full-length human Bri2) (human) (UniProt Q9Y287); assay: SEC; rh Bri2 BRICHOS cleaved from isolated fusion-protein monomers; Superdex 200 PG
[6] = molecular target: recombinant human Bri2 BRICHOS domain (residues 113–231 of full-length human Bri2) (human) (UniProt Q9Y287); assay: SDS-PAGE under non-reducing and reducing conditions; monomeric rh Bri2 BRICHOS (26.8 µM) incubated at 37 °C overnight in 20 mM phosphate pH 8.0, 0.2 mM EDTA, 0.02% NaN3
[7] = molecular target: recombinant human Bri2 BRICHOS domain (residues 113–231 of full-length human Bri2) (human) (UniProt Q9Y287); assay: Western blot after non-reducing SDS-PAGE; rh Bri2 BRICHOS monomer (5 µM) incubated at 37 °C in 80% (v/v) mouse serum, samples at different time points, goat anti-Bri2 BRICHOS blot
[8] = molecular target: recombinant human Bri2 BRICHOS domain (residues 113–231 of full-length human Bri2) (human) (UniProt Q9Y287); assay: negative-stain TEM single-particle 3D reconstruction; oligomers isolated on Superose 6 GL in 20 mM ammonium acetate pH 8.0, 2% uranyl acetate stain, D2 symmetry applied; number of subunits from the volume of the map against that of a monomer model

stoichiometry N [1]: 2
Substance: His6-NT*-thrombin cleavage site-Bri2 BRICHOS fusion protein (from UniProt Q9Y287 113-231) (domain or fragment)

stoichiometry N [2]: 2 and 4
stoichiometry N [3]: 2 and 4
Substance: human Bri2 BRICHOS (residues 113–231) tagged C-terminally with AU1, secreted from HEK293 cells (from UniProt Q9Y287 113-231) (domain or fragment)

stoichiometry N [4]: 2 and 4
stoichiometry N [5]: 2
stoichiometry N [6]: 2
stoichiometry N [7]: 2 and 4 and 6
stoichiometry N [8]: 24
Substance: recombinant human Bri2 BRICHOS domain (residues 113–231 of full-length human Bri2) (from UniProt Q9Y287 113-231) (domain or fragment)
